Values of other authors in article PMC11578925.

How the values were obtained:
CD28 (Homo sapiens) = CD28 (Homo sapiens) (UniProt P10747)
PD-L1 (Homo sapiens) = PD-L1 (Homo sapiens) (UniProt Q9NZQ7)
Sequence of UniProt Q9NZQ7 (Q9NZQ7 19-238): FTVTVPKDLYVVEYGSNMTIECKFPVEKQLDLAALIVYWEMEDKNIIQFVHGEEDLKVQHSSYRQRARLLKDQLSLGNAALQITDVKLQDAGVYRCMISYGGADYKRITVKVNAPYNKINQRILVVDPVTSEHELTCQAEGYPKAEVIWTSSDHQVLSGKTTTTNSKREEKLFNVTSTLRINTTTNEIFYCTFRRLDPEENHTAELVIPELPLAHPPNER

Kd (CD28 (Homo sapiens)): 4 µM
Kd (PD-L1 (Homo sapiens)): 1700 nM
Substance: CD80 (from UniProt P33681)
